Values quoted from earlier work in article PMC4586255.
pKd: −log10 of the molar value. Where two headings read alike, the source gives them in different places.

What was measured:
PCNA (Homo sapiens) [1] = biological target: PCNA (Homo sapiens) (UniProt P12004)
PCNA (Homo sapiens) [2] = biological target: PCNA (Homo sapiens) (UniProt P12004); remark: listed apart in the source

Sequence of PCNA (Homo sapiens) (P12004 whole entry): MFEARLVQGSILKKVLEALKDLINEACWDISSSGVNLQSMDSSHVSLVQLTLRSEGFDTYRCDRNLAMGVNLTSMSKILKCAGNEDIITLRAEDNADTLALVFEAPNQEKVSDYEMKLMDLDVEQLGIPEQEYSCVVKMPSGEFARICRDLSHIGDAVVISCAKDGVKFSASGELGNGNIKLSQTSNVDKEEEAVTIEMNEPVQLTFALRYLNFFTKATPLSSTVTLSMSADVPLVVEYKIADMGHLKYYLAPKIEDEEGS
Sequence of p21 PIP-box peptide PIP-box peptide (P38936 139-160): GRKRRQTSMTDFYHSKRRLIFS
Sequence of FEN1 PIP-box peptide PIP-box peptide (P39748 331-350): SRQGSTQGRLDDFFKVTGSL

FEN1 PIP-box peptide PIP-box peptide (from UniProt P39748)
pKd (PCNA (Homo sapiens) [1]): 4.23

p21 PIP-box peptide PIP-box peptide (from UniProt P38936)
pKd (PCNA (Homo sapiens) [2]): 7.09
